For this experiment, the target named is wild-type SARS-CoV 3CL protease (mature enzyme), as used for analytical ultracentrifugation (SARS-CoV). Put plainly: AUC.

As for “wild-type SARS-CoV 3CL protease (mature enzyme), as used for analytical ultracentrifugation”, the Kd was found to be 0.35 nM.
